Assay [1] deals with T1, CCR5 (Homo sapiens, UniProt P51681). The settings on record: cited from earlier work.
The target of assay [2] is T1, CCR5. Kind of assay: Drug interaction (synergy) analysis of two-drug combinations in the CCF assay (Greco and Prichard models). In kind it is cell-based. Further details: host or cells: CEM-NKr-CCR5-Luc.
From the text: For the in vitro cell-cell fusion studies, the possibility of either enhanced (synergy) or reduced (antagonism) efficacy of CCR5 antibodies in combination with CCR5 antagonists was considered.
The concentration response surface approach described by Greco et al. (Cancer Res. 1990 50:5318-5327) was used to analyze the data. A seven-parameter non-linear model (i) was fit to all experimental data including percent inhibitions calculated from replicates for all concentrations of the two drugs alone and in combination from two 384-well plates. […]
Loewe additivity or no interaction is indicated when the 95% confidence interval of a includes 0. Furthermore, the predicted additivity of the drugs combined was calculated by using all estimated parameters of the Greco model, except a that is fixed at 0. […]
Theoretical additive interactions were calculated from the dose response curves of the individual drugs based on the Bliss Independence equation. […]
The total sum of differences between the observed percent inhibitions and the upper bound of 95% confidence interval of predicted additive percentages is calculated as a statistically significant synergy volume ΣSYN. The total sum of differences between the observed percent inhibitions and the lower bound of 95% confidence interval of predicted additive percentages is calculated as a statistically significant antagonism volume ΣANT. […]
The target of assay [3] is T1, CCR5. Briefly: CCR5 mAb binding to CHO-CCR5 cells after pre-incubation with CCR5 antagonists (FACS). The settings on record: pre-incubation with 50 nM MVC, AK602 or SCH-D, RT 1 h. The source says:
FIG. 4—The graph illustrates the effect of CCR5 antagonists on the time course of 5 mAb binding. […] The time course curves for each mAb in the presence of various antagonists were created based on their mean fluorescence intensity (MFI) values.
(§1) The potential for synergism should be maximized when both the antibody and the low molecular weight antagonist (or fusion or attachment inhibitor) can bind independently to the CCR5 receptor.

For assay [4], the target named is T1, CCR5. Kind of assay: 3H-MVC binding to CHO-CCR5 cells after pre-incubation with CCR5 mAbs. The settings on record: CHO-CCR5 cells preincubated with 30 μg/mL mAb, 26 nM 3H-MVC. As to the method: The cells (2×10^5/100 μL) were pre-incubated with 30 μg/mL of CCR5 mAbs or PBS at RT for 1 h, then incubated with 26 nM of ^3H-MVC. At the end of various time points, cells were washed and the membrane bound ^3H-MVC was measured as described in Example 2. The maximal counts from the control samples were set as 100% binding and the relative binding for all other samples were calculated and the time course curves were generated based on these relative binding at each time point.
as §1

T1 sequence (P51681 whole entry): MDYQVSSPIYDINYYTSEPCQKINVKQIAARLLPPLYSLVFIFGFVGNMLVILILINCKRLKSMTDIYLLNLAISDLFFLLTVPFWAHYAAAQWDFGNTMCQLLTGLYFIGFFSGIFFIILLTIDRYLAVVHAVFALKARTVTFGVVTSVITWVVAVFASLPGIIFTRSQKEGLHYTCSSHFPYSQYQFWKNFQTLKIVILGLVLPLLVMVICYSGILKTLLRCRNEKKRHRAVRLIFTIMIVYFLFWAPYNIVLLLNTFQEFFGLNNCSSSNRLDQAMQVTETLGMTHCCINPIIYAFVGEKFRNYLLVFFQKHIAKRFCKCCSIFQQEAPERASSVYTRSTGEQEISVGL

Consider `CCCCN1C(=O)[C@@H]([C@H](O)C2CCCCC2)NC(=O)C12CCN(Cc1ccc(Oc3ccc(C(=O)O)cc3)cc1)CC2` [AK602, reference compound], for which the “effect on the binding of mAb 45523, in words” value at CCR5 [1] is reported as “completely blocked”. In addition, the “drug interaction in words (synergy / antagonism)” value at CCR5 [2] (combination in cell-cell fusion assay) is reported as “highest synergy”.

B1: RoAb13: mouse anti-human CCR5 monoclonal antibody (Roche), binds the N-terminal end of CCR5 (antibody, V domains shown)
VH: EVKLVESGGGLVKPGGSLKLSCAASGFTFSTYAMSWVRQTPEKRLEWVASISTGDNTYYTDSVRGRFTISRDNARNILYLQMSSLRSEDTAMYFCTRGRGDRGDLFGYWGQGTLVTVSS
VL: DIVMSQSPSSLAVSVGEKVTMSCKSSQSLLYRGNQMNYLAWYQQKPGQSPKLLIYWASTRESGVPDRFTGSGSGTEFTLTISSVKAEDLTVYYCQQYYTYPRTFGGGTKLEIKR
In the case of B1, in the assay with CCR5 [3], the “mAb binding to CHO-CCR5 cells, effect of CCR5 antagonists, in words” value is recorded as “unaffected”. For the same molecule, the “effect on MVC binding, in words” value with CCR5 [4] is “no effect”. Further, the “higher synergy than ROAb14 when combined with MVC” value with CCR5 [2] (combination with MVC) is recorded as “approximately 60%”.
